Assay [1] addresses T1, VEGF121 (human vascular endothelial growth factor) (human, UniProt P15692-9 27-147).
T1 construct: Immobilised on a CM5 chip by EDC/NHS for SPR and coated on plates for phage ELISA; also called VEGF-Trx cut with thrombin
T1 sequence (looked up): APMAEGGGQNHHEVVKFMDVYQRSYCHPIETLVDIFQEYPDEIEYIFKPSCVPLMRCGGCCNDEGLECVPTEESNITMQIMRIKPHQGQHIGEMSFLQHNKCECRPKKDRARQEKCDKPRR
The experiment in a line: phage ELISA, absorbance at 450 nm. A general note: An ELISA detects its analyte on a solid surface through an enzyme-linked reagent.

In assay [2] the target is T2, Fibronectin ED-B protein (human fibronectin extra domain B, N-terminal His-tag) (human, UniProt P02751 1266-1356, biotinylated with sulfo-NHS-SS-biotin for biopanning, input-phage ELISA and SPR on the streptavidin chip).
T2 construct: domain: ED-B; Expressed in E. coli BL21 from pET28b; also called biotinylated-EDB; not shown: N-terminal His-tag from the pET28b vector
T2 sequence (P02751 1266-1356): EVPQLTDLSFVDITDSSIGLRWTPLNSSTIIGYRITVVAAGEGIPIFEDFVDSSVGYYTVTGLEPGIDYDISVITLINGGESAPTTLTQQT
Kind of assay: SPR, synthetic bipodal peptide on ED-B. As to the method:
(§1) Bipodal-peptide binder peptides specific to ED-B, VEGF or nAchR which were repetitively found in DNA sequencing were synthesized from Anigen Inc. (Korea). Affinity was measured using BIAcore X instrument (Biacore AB, Uppsala, Sweden). ED-B and nAchR were immobilized on streptavidin (SA) chip (Biacore) by injecting 2,000 RU biotinylated-EDB. VEGF was immobilized on CM5 chip (Biacore) using EDC/NHS. PBS (pH 7.4) was used as a running buffer.
To verify cooperative effect of bipodal-peptide binder to antigen, we synthesized two peptides removing either N- or C-terminal region of peptide 2 to ED-B having excellent specificity in Table 3a for affinity measurement.
A general note: SPR reads the build-up and loss of mass on a sensor chip optically.

The target in assay [3] is T3, BSA (UniProt P02769 25-607).
T3 construct: Control protein in the input-phage ELISA; also called bovine serum albumin
T3 sequence (P02769 25-607 limits assumed): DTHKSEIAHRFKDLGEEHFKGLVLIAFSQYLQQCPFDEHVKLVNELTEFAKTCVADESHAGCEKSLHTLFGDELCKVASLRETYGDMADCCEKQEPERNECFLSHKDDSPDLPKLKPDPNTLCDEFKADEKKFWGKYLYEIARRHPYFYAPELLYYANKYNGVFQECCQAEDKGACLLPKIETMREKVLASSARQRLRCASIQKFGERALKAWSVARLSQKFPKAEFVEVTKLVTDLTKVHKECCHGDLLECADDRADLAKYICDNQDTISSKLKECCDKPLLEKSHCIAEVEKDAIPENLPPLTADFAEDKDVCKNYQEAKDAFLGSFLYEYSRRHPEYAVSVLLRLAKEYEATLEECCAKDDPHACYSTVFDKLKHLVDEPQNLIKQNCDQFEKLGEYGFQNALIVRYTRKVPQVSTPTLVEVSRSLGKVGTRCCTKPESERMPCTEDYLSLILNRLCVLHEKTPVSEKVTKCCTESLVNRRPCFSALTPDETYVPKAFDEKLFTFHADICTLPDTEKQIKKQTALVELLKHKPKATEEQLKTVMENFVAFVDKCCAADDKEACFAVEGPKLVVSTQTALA
Kind of assay: phage ELISA, absorbance at 450 nm.

Assay [4] concerns the target T4, Streptavidin (UniProt P22629 37-163, limits assumed).
T4 construct: Control protein in the input-phage ELISA; also called straptavidin
The experiment in a line: phage ELISA, absorbance at 450 nm.

The target in assay [5] is T2, Fibronectin ED-B protein (human …). Kind of assay: SPR (BIAcore X), biotinylated ED-B on SA chip. The protocol: as §1
(§2) The above-mentioned peptides were synthesized and their affinities to fibronectin ED-B, VEGF, VCAM1, nAchR and HAS were measured using SPR Biacore system (Biacore AB, Uppsala, Sweden).

Assay [6] has the same target. The experiment in a line: SPR (BIAcore X), biotinylated ED-B on streptavidin chip, synthetic peptide as analyte. The protocol:
as §1, §2

The target is the same in assay [7]. The experiment in a line: phage ELISA on 10 coated proteins (streptavidin, ED-B, acetylcholine α1, BSA, VCAM, TNF-α, thrombin, myoglobin, lysozyme, visfatin), anti-M13-HRP. As to the method: Specificity of recombinant phages to each protein was carried out using ELISA. Each protein (5 μg/ml) was seeded into wells (50 μl per well) in a 96-well ELISA plate and next day, all wells were washed with 0.1% PBST (Tween-20) three times, and blocked at room temperature for 2 hrs using 2% skim milk. Then, the solution was completely removed and the plate was washed with 0.1% PBST three times. Recombinant phages containing the peptide of the present invention were thoroughly mixed with 2% BSA. Each mixture (100 μl) was divided into wells coated with 10 proteins and kept to stand at 27° C. for 2 hrs. After washing with 0.1% PBST 5 times, HRP-conjugated anti-M13 antibodies (1:1,000 dilution; GE Healthcare) were added to each well and incubated at 27° C. for 1 hr. After washing with 0.1% PBST 5 times, 100 μl TMB was divided into each well to induce colorimetric reaction, followed by stopping the reaction adding 100 μl of 1 M HCl. The absorbance was measured at 450 nm.

In assay [8] the target is T5, GST-AR DBD protein (androgen receptor DNA binding domain with N-terminal GST) (UniProt P10275 556-636).
T5 construct: In ELISA and EMSA the text calls the protein AR-DBD or AR DBD protein; also called androgen receptor DBD; not shown: GST encoded by the pGEX-4T-1 vector, N-terminal
T5 sequence (looked up): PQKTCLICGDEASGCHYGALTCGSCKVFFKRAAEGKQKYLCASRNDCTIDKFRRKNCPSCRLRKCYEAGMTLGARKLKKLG
Kind of assay: phage ELISA of single clones on AR-DBD against BSA. As to the method:
(§3) AR-DBD (10 μg/ml) and BSA (10 μg/ml) each was added to 30 wells (50 μl per well) in a 96-well ELISA plate and then kept to stand at 4° C. overnight. Next day, all wells were washed with 0.1% PBST three times, and blocked at room temperature for 2 hrs using 2% skim milk diluted with PBS. Then, the solution was removed and the plate was washed with 0.1% PBST three times. Phage peptide solution (100 μl) amplified from each clone was aliquoted to ED-B protein-bound wells and BSA protein-bound wells and kept to stand at 27° C. for 1.5 hrs. After washing with 0.1% PBST 10 times, HRP-conjugated anti-M13 antibodies (1:1,000 dilution; GE Healthcare) were added to each well and incubated at 27° C. for 1 hr. After washing with 0.1% PBST 5 times, 100 μl TMB was divided into each well to induce colorimetric reaction, followed by stopping the reaction adding 100 μl of 1 M HCl. The absorbance was measured at 450 nm to select phages which had the absorbance above 20-fold higher than BSA. XL1 cells were infected with these phages and spread in plate to produce 100-200 of plaques. […]
The phages recovered from the 5th biopanning step having the highest O/I ratio in each library were isolated as plaques. […] Most plaques were analyzed to show the absorbance value of AR-DBD higher than that of BSA. The DNA sequencing was performed for 20 clones showing the absorbance value above 5-fold higher than BSA. […]

Assay [9] concerns the target T6, Human serum albumin (human, UniProt P02768 25-609).
T6 construct: Bought protein; also called HSA; HAS
Kind of assay: SPR (Biacore).

Assay [10] addresses T4, Streptavidin. Kind of assay: phage ELISA, absorbance at 450 nm. This is another data set of the same source.
The target of assay [11] is T6, Human serum albumin. The experiment in a line: SPR (Biacore), synthetic peptide; immobilisation of HSA not described.
Assay [12] deals with T3, BSA. The experiment in a line: phage ELISA, absorbance at 450 nm. This is another data set of the same source.
Assay [13] deals with T1, VEGF121 (human vascular endothelial …). Kind of assay: phage ELISA, absorbance at 450 nm. This is another data set of the same source.
The target of assay [14] is T4, Streptavidin. The experiment in a line: phage ELISA, absorbance at 450 nm. The source holds these as a separate data set.
A further assay concerns the target STAT3 protein (UniProt P40763 1-770, limits assumed). Kind of assay: phage ELISA of single clones on STAT3 against streptavidin. The protocol: as §3, with “STAT3 (10 μg/ml), BSA (10” for “AR-DBD (10”, “and streptavidin” for “and BSA”, “to STAT3-bound” for “to ED-B protein-bound”
The phages recovered from the 4th biopanning step having the highest O/I ratio in each library were isolated as plaques. […] The DNA 10 sequencing was performed for 6 clones showing the absorbance value above 2-fold higher than streptavidin. […]

For assay [15], the target named is T3, BSA. The experiment in a line: phage ELISA, absorbance at 450 nm. The source holds these as a separate data set.
Assay [16] deals with T7, Peptide fragment of nAchR (Nicotinic acetylcholine receptor), 32 mer, biotinylated (N-terminal biotin).
T7 construct: Synthesised by Anigen; Immobilised on a streptavidin chip for SPR; also called biotinylated nAchR; biotinylated-nAchR peptide
T7 peptide: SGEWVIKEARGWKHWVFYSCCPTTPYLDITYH
The experiment in a line: SPR (BIAcore X), biotinylated nAchR peptide on SA chip. As to the method:
as §1, §2

In assay [17] the target is T7, Peptide fragment of nAchR (Nicotinic …). The experiment in a line: SPR (BIAcore X), biotinylated nAchR peptide on streptavidin chip, synthetic peptide as analyte. The protocol: as §1, §2
In assay [18] the target is T1, VEGF121 (human vascular endothelial …). Kind of assay: SPR (BIAcore X), VEGF on CM5 chip. As to the method: as §1, §2
Assay [19] deals with T3, BSA. Kind of assay: phage ELISA, absorbance at 450 nm. This is another data set of the same source.
Assay [20] deals with T1, VEGF121 (human vascular endothelial …). Kind of assay: SPR (BIAcore X), VEGF on CM5 chip, synthetic peptide as analyte. As to the method: as §1, §2

Where two headings read alike, the source gives them in different places.

The Kd is the equilibrium constant for the complex coming apart. Higher therefore signals weaker binding. The koff is a measure of how fast the partners let go of each other. Broadly, the kon is the rate constant with which the complex forms. Higher therefore signals fast association.

T4 sequence (P22629 37-163 limits assumed): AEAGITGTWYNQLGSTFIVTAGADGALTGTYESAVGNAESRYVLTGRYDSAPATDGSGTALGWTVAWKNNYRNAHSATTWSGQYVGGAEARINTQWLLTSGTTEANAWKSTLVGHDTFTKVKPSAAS
T6 sequence (P02768 25-609 limits assumed): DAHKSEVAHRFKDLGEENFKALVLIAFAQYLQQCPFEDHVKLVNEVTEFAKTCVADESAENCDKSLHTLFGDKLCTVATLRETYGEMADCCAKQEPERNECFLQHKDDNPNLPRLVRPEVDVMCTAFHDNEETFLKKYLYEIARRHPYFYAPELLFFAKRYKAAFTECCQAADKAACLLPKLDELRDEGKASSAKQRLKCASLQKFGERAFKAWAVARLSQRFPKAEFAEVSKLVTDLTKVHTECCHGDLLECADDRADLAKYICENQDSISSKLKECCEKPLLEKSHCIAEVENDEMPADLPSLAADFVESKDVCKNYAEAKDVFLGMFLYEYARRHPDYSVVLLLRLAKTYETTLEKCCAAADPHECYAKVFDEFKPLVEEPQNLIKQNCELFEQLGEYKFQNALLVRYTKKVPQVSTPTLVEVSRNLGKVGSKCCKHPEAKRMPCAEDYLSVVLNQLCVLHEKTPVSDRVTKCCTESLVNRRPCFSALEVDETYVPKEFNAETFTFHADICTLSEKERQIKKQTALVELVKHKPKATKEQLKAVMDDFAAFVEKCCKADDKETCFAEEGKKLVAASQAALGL
Sequence of STAT3 protein (P40763 whole entry): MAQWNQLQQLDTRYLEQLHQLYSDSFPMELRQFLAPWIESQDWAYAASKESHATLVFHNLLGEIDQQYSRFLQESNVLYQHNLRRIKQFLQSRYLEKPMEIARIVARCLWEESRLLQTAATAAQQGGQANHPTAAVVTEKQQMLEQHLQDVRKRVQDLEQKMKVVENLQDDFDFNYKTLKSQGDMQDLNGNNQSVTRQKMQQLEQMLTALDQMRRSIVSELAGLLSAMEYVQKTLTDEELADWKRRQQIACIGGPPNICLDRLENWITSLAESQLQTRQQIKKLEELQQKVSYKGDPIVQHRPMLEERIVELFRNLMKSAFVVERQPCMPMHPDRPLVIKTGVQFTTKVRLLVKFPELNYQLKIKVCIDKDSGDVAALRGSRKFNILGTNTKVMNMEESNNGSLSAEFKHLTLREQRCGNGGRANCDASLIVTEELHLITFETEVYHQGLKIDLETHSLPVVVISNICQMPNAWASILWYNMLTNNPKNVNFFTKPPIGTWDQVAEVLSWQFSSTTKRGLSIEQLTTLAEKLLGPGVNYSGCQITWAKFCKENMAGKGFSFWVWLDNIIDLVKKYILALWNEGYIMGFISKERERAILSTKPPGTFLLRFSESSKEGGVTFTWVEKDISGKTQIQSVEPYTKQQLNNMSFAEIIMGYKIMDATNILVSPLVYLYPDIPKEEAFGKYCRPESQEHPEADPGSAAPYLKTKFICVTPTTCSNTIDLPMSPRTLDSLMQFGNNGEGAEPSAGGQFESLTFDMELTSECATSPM

For the molecule HSHAFYGSWTWENGKWTWKGNPGWWT [Peptide 1 specific to MyD88 (Table 3f), bipodal-peptide binder], the binding result in assay [1] is given as “no binding”.

HCSSAVGSWTWENGKWTWKGIIRLEQ [Peptide 2 specific to fibronectin ED-B (Table 3a), bipodal-peptide binder with tryptophan zipper]: the values for the Kd in assay [2] and in [6] were 43 nM and 75 nM, respectively. In addition, the binding result with BSA [3] and in the assay with Streptavidin [4] was “no binding” in each case. In [5], this molecule registered a koff of 0.0008 s⁻¹. In addition, the on-rate constant (kon) in assay [5] stood at 10000 M⁻¹ s⁻¹. For the same molecule, the “fold absorbance over other proteins” value in assay [7] was greater than 30 fold.

Consider GGHNIQGSWTWENGKWTWKGWQHIWG [Peptide 2 from the AR-DBD biopanning (6/20 clones), bipodal-peptide binder], for which the “fold absorbance over BSA” value in assay [8] is greater than 5 fold.

With AASPYKGSWTWENGKWTWKGGWRMKM [Peptide 1 specific to HSA (Table 3e), bipodal-peptide binder], in the assay with Human serum albumin [9], the koff stood at 0.02 s⁻¹ and the kon is 250000 M⁻¹ s⁻¹. Further, the binding result in the assay with Streptavidin [10] is listed as “no binding”. Besides, in the assay with Human serum albumin [11], the dissociation constant Kd was 115 nM.

On to HGFQWPGSWTWENGKWTWKGAYQFLK (also called BPB2) [STAT3-specific bipodal-peptide binder Peptide 2], for which the binding result (with BSA [12]; in assay [13]; with Streptavidin [14]) was “no binding” in each case. In the assay with STAT3 protein, the “fold absorbance over streptavidin” value is greater than 2 fold.

On to EASFWLGSWTWENGKWTWKGKGTLNR [Peptide 1 specific to nAchR (Table 3d), bipodal-peptide binder], for which the binding result with BSA [15] is “no binding”. Moreover, in assay [16], the koff came out at 0.0085 s⁻¹ and the kon came out at 110000 M⁻¹ s⁻¹. Moreover, in assay [17], the Kd came out at 73 nM.

In assay [18], HANFFQGSWTWENGKWTWKGWKYNQS [Peptide 1 specific to VEGF (Table 3b), bipodal-peptide binder] came in with a koff of 0.013 s⁻¹ and an on-rate constant (kon) of 220000 M⁻¹ s⁻¹. Besides, the binding result in the assay with BSA [19] is on record as “no binding”. In [20], this molecule showed a Kd of 60 nM.

Source of the values: patent US20120309934A1 (GWANGJU INSTITUTE OF SCIENCE AND TECHNOLOGY, published 2012).
